Substrate in series [1]: CCCCCCCCC=O
Put plainly: in vivo luminescence of E. coli cells, aldehyde titration, nonlinear fit. The class given is cell-based, Photorhabdus luminescens. To be noted: whole E. coli K12 MG1655 pABX cells; apparent constant; cellular FMNH2 and O2.

Substrate in series [2]: CCCCCC=O
Described as above. The class given is cell-based, Photorhabdus luminescens. To be noted: whole E. coli K12 MG1655 pABX cells; apparent constant; cellular FMNH2 and O2.

B1: PlLuxAB (Photorhabdus luminescens) (protein)
chain: MKFGNFLLTYQPPQFSQTEVMKRLVKLGRISEECGFDTVWLLEHHFTEFGLLGNPYVAAAYLLGATKKLNVGTAAIVLPTAHPVRQLEDVNLLDQMSKGRFRFGICRGLYNKDFRVFGTDMNNSRALAECWYGLIKNGMTEGYMEADNEHIKFHKVKVNPAAYSRGGAPVYVVAESASTTEWAAQFGLPMILSWIINTNEKKAQLELYNEVAQEYGHDIHNIDHCLSYITSVDHDSIKAKEICRKFLGHWYDSYVNATTIFDDSDQTRGYDFNKGQWRDFVLKGHKDTNRRIDYSYEINPVGTPQECIDIIQKDIDATGISNICCGFEANGTVDEIIASMKLFQSDVMPFLKEKQRSLLY
In the case of B1, the Km (in general, the substrate concentration at which the rate is half of its maximum) was 0.025 ± 0.002 mM in series [1] and 7 ± 2 mM in series [2].

The values are drawn from publication doi:10.1101/2023.02.27.530324v2.
